Test results published in US20140271602, “NUCLEOTIDE-SPECIFIC RECOGNITION SEQUENCES FOR DESIGNER TAL EFFECTORS” (THE BROAD INSTITUTE INC., published 2014).
Where a chain is given by its changes, count along the chain named.

How the values were obtained:
[1] = target: T1, TALE1-NN (CACNA1C site 1 activator) (Xanthomonas (engineered), UniProt P14727 SEQ:1-983); experiment: cell_activity; HEK 293FT, endogenous CACNA1C mRNA; conditions: tags: VP64, 2A-GFP
T1 chain: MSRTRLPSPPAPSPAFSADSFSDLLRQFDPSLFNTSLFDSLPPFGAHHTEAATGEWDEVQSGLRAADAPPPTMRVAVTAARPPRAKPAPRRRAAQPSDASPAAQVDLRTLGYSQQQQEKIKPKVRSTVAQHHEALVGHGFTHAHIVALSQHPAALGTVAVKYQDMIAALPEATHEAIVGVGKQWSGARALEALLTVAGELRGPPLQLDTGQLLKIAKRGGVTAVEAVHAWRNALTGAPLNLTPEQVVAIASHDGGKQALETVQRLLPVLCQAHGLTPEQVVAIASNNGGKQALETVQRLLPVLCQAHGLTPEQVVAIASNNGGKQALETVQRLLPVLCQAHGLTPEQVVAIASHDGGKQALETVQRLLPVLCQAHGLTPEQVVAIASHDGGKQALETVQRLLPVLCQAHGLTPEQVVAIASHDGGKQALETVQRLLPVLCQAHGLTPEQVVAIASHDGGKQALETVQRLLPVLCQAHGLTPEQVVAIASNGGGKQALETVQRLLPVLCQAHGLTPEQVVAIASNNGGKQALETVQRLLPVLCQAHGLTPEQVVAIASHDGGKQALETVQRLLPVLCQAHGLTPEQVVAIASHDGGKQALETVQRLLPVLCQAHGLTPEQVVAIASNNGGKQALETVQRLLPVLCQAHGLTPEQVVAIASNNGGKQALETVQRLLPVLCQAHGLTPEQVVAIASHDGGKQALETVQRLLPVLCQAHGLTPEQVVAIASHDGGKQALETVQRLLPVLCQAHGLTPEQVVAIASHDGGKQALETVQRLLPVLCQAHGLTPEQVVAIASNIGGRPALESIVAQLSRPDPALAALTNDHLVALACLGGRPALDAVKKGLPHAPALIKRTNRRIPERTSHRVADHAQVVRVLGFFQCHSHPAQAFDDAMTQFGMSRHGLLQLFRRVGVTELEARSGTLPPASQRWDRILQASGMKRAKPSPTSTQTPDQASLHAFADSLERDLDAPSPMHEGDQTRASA
Protocol: Changes in mRNA are measured using qRT-PCR as described previously. VP64, VP64 transcription activation domain. All results are collected from three independent experiments in HEK 293FT cells. Error bars indicate s.e.m.; n=3. FIG. 19(b) discloses SEQ ID NOS 63 and 62, respectively, in order of appearance.
Using qRT-PCR, the performance of NN, NK, NH, and HN for targeting endogenous genomic sequences was further compared. The ability of NN-, NK-, NH-, and HN-TALEs to activate CACNA1C transcription by targeting the two endogenous target sites was tested (FIG. 19b). […] Both TALE 1-NH and TALE2-NH were able to achieve similar levels of transcriptional activation as TALE1-NN and TALE2-NN (˜5 and ˜3 folds of activation for targets 1 and 2, respectively) and twice more than TALE-NK and TALE2-NK (FIG. 19b). […] On the other hand, based on all the results from specificity and endogenous activity tests, the RVD NH seems to be a more suitable substitute for NN than NK when higher targeting specificity is desired, as it also provides higher levels of biological activity. Further testing using additional endogenous genomic targets helps validate the broad utility of NH as a highly specific G-targeting RVD.
For the endogenous gene transcriptional level assay to test the biological activities of TALE activators and TALE repressors, HEK 293FT cells were seeded into 24-well plates. […]

TALE1-NN repressor = target: T2, TALE1-NN repressor (Xanthomonas (engineered), UniProt P14727 SEQ:1-983); experiment: cell_activity; endogenous CACNA1C mRNA; conditions: tags: SID
T2 chain: T1 chain

TALE1-NK repressor = target: T3, TALE1-NK repressor (Xanthomonas (engineered), UniProt P14727 SEQ:1-983); experiment: cell_activity; endogenous CACNA1C mRNA; conditions: tags: SID
T3 chain: T1 chain with N287K, N321K, N525K, N627K, N661K

B1: CACNA1C site 1 (dsDNA)
DNA 1: TCGGCCCCTGCCGGCCCA
DNA 2: TGGGCCGGCAGGGGCCGA
activity [1]: ~5 fold activation
activity (TALE1-NN repressor): ~4 fold repression
activity (TALE1-NK repressor): ~2 fold repression
